Experiments:
[1] = target: human essential light chain (MYL3) (UniProt P08590); experiment: Coomassie SDS-PAGE gel-based light chain loading assay; conditions: read off a plot
[2] = target: human regulatory light chain (MYL2) (UniProt P10916); experiment: as above; conditions: read off a plot

“human β-cardiac myosin 2-hep heavy chain, wild type D778V” gave a ratio to parent [1] of 1.1 and a ratio to parent [2] of 1.3.

Work on “human β-cardiac myosin 2-hep heavy chain, wild type L781P” yielded a ratio to parent [1] of 0.99 and a ratio to parent [2] of 1.2.
